We go through one substance from PMC12714700.

Broadly, the stoichiometry N is a count of units in the complex or per binding partner.

The assay has as its target SARS-CoV-2 Delta spike-ferritin fusion protein (Delta spike-ferritin VLP antigen) (SARS-CoV-2 (Delta variant) | Helicobacter pylori) (UniProt P0DTC2). Nature of the assay: cryo-EM structure.

In turn, “SARS-CoV-2 Delta spike-ferritin fusion protein (Delta spike-ferritin VLP antigen) (from UniProt P0DTC2 14-1163)” had a stoichiometry N of 24.
